Experimental data published in patent publication US20200277400A1.

Columns and labels:
[1] = target: meHER2(Hc-Lc):28ζ CAR; test: flow cytometry, meditope-AF647 staining of lentivirally transduced primary human T cells; untransduced control 1.83%
[2] = target: meHER2(Lc-Hc):28ζ CAR; test: as above
[3] = target: meHER2(Hc-Lc):28ζ CAR; test: flow cytometry, T cells pre-bound to meditope peptide, then protein L; untransduced control 0.50%
[4] = target: meHER2(Lc-Hc):28ζ CAR; test: as above
[5] = target: meHER2(Hc-Lc):28ζ CAR; test: flow cytometry, T cells pre-bound to meditope peptide, then protein L; untransduced control 0.63%
[6] = target: meHER2(Lc-Hc):28ζ CAR; test: as above
[7] = target: meHER2(Hc-Lc):28ζ CAR; test: flow cytometry, T cells pre-bound to meditope peptide, then protein L; untransduced control 7.23%
[8] = target: meHER2(Lc-Hc):28ζ CAR; test: as above
[9] = target: meHER2(Hc-Lc):28ζ CAR; test: flow cytometry, protein L staining of lentivirally transduced primary human T cells; untransduced control 13.16%
[10] = target: Fab (meditope-binding Fab, not further named); test: method not stated

Chain of meHER2(Hc-Lc):28ζ CAR (heavy, as listed by the source limits assumed, chain 1 of 2): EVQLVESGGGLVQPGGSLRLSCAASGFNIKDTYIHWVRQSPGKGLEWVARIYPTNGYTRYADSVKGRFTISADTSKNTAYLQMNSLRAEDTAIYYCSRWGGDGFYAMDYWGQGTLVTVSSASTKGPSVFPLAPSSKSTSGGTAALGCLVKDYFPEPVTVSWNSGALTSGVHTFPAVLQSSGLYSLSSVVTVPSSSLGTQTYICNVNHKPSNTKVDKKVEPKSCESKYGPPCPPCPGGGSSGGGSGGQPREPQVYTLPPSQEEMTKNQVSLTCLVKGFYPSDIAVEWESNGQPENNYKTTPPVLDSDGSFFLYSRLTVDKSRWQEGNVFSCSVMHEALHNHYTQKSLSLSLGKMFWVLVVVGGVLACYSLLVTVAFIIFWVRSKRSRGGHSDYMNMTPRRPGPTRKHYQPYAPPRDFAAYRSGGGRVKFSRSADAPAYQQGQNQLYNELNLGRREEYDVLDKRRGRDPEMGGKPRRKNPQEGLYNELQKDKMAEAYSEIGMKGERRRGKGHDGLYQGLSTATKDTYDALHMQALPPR
Chain of meHER2(Hc-Lc):28ζ CAR (light, as listed by the source limits assumed, chain 2 of 2): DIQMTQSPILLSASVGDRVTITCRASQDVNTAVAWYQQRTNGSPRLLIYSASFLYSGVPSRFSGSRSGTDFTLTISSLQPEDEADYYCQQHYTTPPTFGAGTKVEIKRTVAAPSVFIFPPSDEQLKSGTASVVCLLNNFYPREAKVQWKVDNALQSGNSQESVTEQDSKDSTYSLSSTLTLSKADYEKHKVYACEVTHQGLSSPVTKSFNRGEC
Chain of meHER2(Lc-Hc):28ζ CAR (heavy, as listed by the source limits assumed, chain 1 of 2): as the sequence (heavy, as listed by the source limits assumed, chain 1 of 2) above
Chain of meHER2(Lc-Hc):28ζ CAR (light, as listed by the source limits assumed, chain 2 of 2): as the sequence (light, as listed by the source limits assumed, chain 2 of 2) above

Q: How did the % of cells in the positive gate [1] turn out when meditope-AF647 (peptide) was run?
A: The % of cells in the positive gate was 54.4%.

Q: And the % of cells in the positive gate [2]?
A: Its % of cells in the positive gate is 57.1%.

Q: And the % of cells Meditope+ Protein L- (upper left quadrant) [3]?
A: Its % of cells Meditope+ Protein L- (upper left quadrant) is 2.6%.

Q: And the % of cells Meditope+ Protein L- (upper left quadrant) [4]?
A: The % of cells Meditope+ Protein L- (upper left quadrant) was 2.09%.

Q: For protein L, which % of cells Meditope+ Protein L+ (upper right quadrant) [5] is on record?
A: Its % of cells Meditope+ Protein L+ (upper right quadrant) is 42.1%.

Q: What about the % of cells Meditope+ Protein L+ (upper right quadrant) [6] of the same substance?
A: Its % of cells Meditope+ Protein L+ (upper right quadrant) is 43.1%.

Q: And the % of cells Meditope- Protein L+ (lower right quadrant) [7]?
A: The % of cells Meditope- Protein L+ (lower right quadrant) was 4.04%.

Q: And the % of cells Meditope- Protein L+ (lower right quadrant) [8]?
A: The % of cells Meditope- Protein L+ (lower right quadrant) was 16.1%.

Q: What about the % of cells in the positive gate [9] of the same substance?
A: Its % of cells in the positive gate is 51.8%.

Q: Which estimated half-life of the complex [10] does the source give for meditope-protein L fusion (MPL) here?
A: The estimated half-life of the complex was greater than 80 days.
